Test results published in patent publication US20030013634A1, “Synthesis of small particles” (priority 2000, published 2003).

Columns and labels:
[1] = Median particle size by laser diffraction; format: physicochemical; conditions: for median particle size: laser diffraction, agglomerated insulin powder, Example 5
Source text: These fine insulin particles may aggregate to form larger particles due to intermolecular interaction between the molecules. […] Insulin precipitated as nano-sized particles, was also agglomerated to micron-sized particles.

[2] = Aerosol characterisation by impaction (Marple-Miller / Cascade Impactor); format: physicochemical
Description: In order to determine the aerosol performance of the protein particles, in vitro testing of the particles was assessed using a 5 stage Marple-Miller Impactor (Model 160, MSP Corporation, USA) with cut-off diameters of […]. The Marple-Miller impactor consisted of a stainless steel inlet throat, five impaction stages and an integral filter stage. The stages were previously coated with propylene glycol/methanol (50:50) to prevent particle bounce, thus minimising the probability of carry over of coarse particles onto lower stages.
A mass of 10-20 mg of insulin was weighed into a gelatin capsule (size 3, Park Davis, Australia) and was immediately dispersed by a powder inhaler device, Dinkihaler (Aventis, Frankfurt, Germany) into the Marple Miller Impactor at 60 L/min using a vacuum source (ERWEKA GMBH, Germany).
The fraction of the protein recovered in each stage was calculated by measuring the absorbance of the protein solution against the absorbance of a standard 1% solution of insulin.

[3] = Biochemical integrity by size exclusion chromatography (monomer content); format: physicochemical; conditions: for biological activity as indicated by the in vitro test for monomer content: after processing with the anti-solvent
Description: A protein-Pak 125 column (Waters, USA) was used for insulin. The mobile phase consisted of 50 mM sodium phosphate buffer at pH 3 with 300 mM sodium chloride. The powder samples were dissolved to prepare 1 mg/mL solution in deionised water by gentle shaking for 10 minutes to have complete dissolution. The supernatant was filtered through […] membrane filter and then injected into the HPLC column. […] The software Millennium 3.5 was used in the quantification of the monomer content.

[4] = Insulin deamidation testing by reverse phase HPLC; format: physicochemical; conditions: 2 mg/mL, after particle formation
Description: In order to determine the percentage of insulin that was deamidated by the process, a test of the insulin was performed using high performance liquid chromatography (HPLC). A reverse phase column (Symmetry® C18, 5 μm packing, 4.6 mm×150 mm) was used to separate the deamidated from the non-deamidated insulin. The gradient method was used with eluents 0.1% trifluoroacetic acid/acetonitrile 26% to 33% and the flow rate of 1 mL/min. The absorbance was monitored at 280 nm.
The percentage of deamido insulin was determined by comparing the peak area of the degradation product to the area of standard insulin containing the same concentration of insulin (2 mg/mL).

[5] = Particle size and morphology by SEM; format: physicochemical
Source text: These fine insulin particles may aggregate to form larger particles due to intermolecular interaction between the molecules.

[6] = values reported in the literature; cited from earlier work

CO2-ethanol: Insulin particles precipitated using carbon dioxide modified with 20 mol % ethanol as anti-solvent (comparison)
D(0.5, V) median particle size based on volume ([1]; 2-stage process): 8.2 +/− 0.6 | D(0.5, V) median particle size based on volume ([1]; single stage production unit): 11.8 +/− 1.6 | FPM (%) fine particle mass, mass fraction of particles below 5 μm ([2]; 2-stage process): 21.9% | biological activity as indicated by the in vitro test for monomer content [3]: significant deactivation

Ethane-ethanol
D(0.5, V) median particle size based on volume ([1]; 2-stage process): 4.8 +/− 0.4 | D(0.5, V) median particle size based on volume ([1]; single stage production unit): 12.8 +/− 1.0 | FPM (%) fine particle mass, mass fraction of particles below 5 μm ([2]; 2-stage process): 43.5% | increase in the amount of material less than 5 μm aerodynamic diameter ([2]; 2-stage versus single stage process): 100% | fraction of particles with a size >10 μm ([2]; aerodynamic particle size distribution, FIG. 4): around 45% | FPM (%) fine particle mass, mass fraction of particles below 5 μm ([2]; single stage production unit): 20.0% | biological activity as indicated by the in vitro test for monomer content [3]: retention of biological activity

insulin: Low endotoxin bovine insulin (Sigma), precipitated as fine particles from aqueous solution by the ASES process
median particle size [1]: 5 μm | median particle size ([1]; listed as Insulin): about 5 μm | FPM (%) fine particle mass, mass fraction of particles below 5 μm ([2]; 2-stage process): 45% | fine particle fraction (% <5 μm) ([2]; Marple Miller Impactor, Dinkihaler, 60 L/min): at least 42% | FPM (%) fine particle mass, mass fraction of particles below 5 μm ([2]; single stage production unit): 20% | monomer content ([3]; 1 mg/mL in deionised water, after particle formation): 99.5% | percentage of deamido insulin [4]: 3.0% | size of nano-sized particles ([5]; modified dual vessel apparatus (FIG. 10b)): 50-500 nm | size of nano-sized particles ([5]; single-stage apparatus (FIG. 9b)): 50-500 nm | maximum FPM obtained by other methods [6]: ≤ 10%
